# Measured values reported in patent publication US20170267757A1.
# How the values were obtained:
# Test in all cases: sandwich ELISA, antibody as capture 100 ng/well, CHO-K1 supernatant, anti-human Ig-HRP
# [1] = target: CD66c mutant (BI/BHI)-hFc (human)
# [2] = target: CD66c mutant (HPK/HdIII/PstI/klenow)-hFc (human)
# [3] = target: CD66c-HuIgFc recombinant antigen (human)
# Chain of CD66c-HuIgFc recombinant antigen (human) (chain, as listed by the source limits assumed): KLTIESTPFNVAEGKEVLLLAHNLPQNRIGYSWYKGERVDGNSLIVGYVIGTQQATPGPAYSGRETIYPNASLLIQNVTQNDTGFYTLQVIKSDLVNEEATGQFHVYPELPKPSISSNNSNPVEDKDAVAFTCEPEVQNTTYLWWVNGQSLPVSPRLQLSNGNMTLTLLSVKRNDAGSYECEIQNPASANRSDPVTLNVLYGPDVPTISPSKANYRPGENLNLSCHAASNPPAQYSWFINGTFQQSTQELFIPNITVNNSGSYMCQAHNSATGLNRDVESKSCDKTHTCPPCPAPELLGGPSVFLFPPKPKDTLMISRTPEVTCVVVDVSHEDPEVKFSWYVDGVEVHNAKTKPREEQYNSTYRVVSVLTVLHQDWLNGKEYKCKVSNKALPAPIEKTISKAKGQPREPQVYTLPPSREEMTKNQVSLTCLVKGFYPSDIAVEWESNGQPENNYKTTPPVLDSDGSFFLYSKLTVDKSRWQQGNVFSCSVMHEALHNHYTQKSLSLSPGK
# Chain of CD66c mutant (BI/BHI)-hFc (human) (chain, as listed by the source mutant limits assumed, form in doubt): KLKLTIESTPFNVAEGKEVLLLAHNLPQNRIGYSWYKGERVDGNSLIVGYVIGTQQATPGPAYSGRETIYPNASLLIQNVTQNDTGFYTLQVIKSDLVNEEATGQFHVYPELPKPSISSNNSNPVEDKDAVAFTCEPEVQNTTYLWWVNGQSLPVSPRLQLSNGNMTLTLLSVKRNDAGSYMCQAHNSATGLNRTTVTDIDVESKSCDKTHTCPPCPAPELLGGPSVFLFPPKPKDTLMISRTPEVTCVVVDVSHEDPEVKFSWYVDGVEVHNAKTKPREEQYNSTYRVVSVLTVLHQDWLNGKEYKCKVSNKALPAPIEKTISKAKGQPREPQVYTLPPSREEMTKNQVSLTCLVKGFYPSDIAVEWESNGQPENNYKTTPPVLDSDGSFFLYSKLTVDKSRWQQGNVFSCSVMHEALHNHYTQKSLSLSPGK
# Chain of CD66c mutant (HPK/HdIII/PstI/klenow)-hFc (human) (chain, as listed by the source mutant limits assumed, form in doubt): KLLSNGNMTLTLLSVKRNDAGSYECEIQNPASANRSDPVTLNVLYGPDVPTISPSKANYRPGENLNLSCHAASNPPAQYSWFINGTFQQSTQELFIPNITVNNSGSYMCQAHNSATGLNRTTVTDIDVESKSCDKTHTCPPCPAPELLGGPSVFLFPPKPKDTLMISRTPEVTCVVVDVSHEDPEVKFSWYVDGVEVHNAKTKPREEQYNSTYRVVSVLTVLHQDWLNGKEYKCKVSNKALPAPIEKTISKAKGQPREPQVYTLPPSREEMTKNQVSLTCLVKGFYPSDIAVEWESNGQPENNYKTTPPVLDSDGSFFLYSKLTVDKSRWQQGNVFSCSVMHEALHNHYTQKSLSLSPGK
substance,measurement,setting,value
9A6 anti-CD66c monoclonal antibody (Santa Cruz),absorbance at 450 nm (absorbance at 450 nm),[1],1.92
same,absorbance at 450 nm (absorbance at 450 nm),[2],0.049
same,absorbance at 450 nm (absorbance at 450 nm),[3],2.84
